What was measured:
HKv2.1 = biological target: T1, HKv2.1 (Homo sapiens, UniProt Q14721); experiment: Two-electrode voltage clamp of Kv2.1 currents in Xenopus oocytes coexpressing 1v; type: cell-based
T1 sequence (Q14721 1-858): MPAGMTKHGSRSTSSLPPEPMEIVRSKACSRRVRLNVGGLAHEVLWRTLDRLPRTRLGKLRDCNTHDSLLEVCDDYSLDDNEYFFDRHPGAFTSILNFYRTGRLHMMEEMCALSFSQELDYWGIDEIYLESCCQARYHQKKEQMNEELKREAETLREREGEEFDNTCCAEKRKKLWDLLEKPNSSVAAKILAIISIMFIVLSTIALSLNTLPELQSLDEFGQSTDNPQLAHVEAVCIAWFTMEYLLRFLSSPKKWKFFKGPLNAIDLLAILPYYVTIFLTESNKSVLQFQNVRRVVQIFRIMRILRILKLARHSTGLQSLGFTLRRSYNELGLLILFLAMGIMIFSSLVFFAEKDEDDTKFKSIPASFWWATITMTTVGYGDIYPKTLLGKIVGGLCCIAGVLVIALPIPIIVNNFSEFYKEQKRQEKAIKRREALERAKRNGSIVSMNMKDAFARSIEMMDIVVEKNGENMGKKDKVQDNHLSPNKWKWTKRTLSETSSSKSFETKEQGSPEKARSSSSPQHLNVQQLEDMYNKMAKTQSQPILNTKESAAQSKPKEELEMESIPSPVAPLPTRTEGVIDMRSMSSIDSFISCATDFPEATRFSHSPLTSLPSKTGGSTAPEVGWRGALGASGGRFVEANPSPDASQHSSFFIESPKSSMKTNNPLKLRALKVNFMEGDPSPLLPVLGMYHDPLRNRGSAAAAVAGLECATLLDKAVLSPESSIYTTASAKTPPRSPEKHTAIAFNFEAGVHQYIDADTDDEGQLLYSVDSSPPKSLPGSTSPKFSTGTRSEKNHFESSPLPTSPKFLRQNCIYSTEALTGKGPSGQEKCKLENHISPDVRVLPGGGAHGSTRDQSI
Description: Frogs underwent no more than two surgeries and surgeries were performed by well established techniques. Frogs were anesthetized with ice. Total cRNA (1-10 ng) was injected into stage IV Xenopus oocytes that were harvested the previous day. The Xenopus oocytes were incubated in ND96 containing (in mM) 96 NaCl, 2 KCl, 1.8 CaCl2, 1 MgCl2, 5 HEPES, pH 7.6, plus (Gentamycin 50 μg/ml) at 18° C. Xenopus oocytes were studied 3-7 days after injection. The two-electrode voltage-clamp recordings were performed in ND96 solution using a TURBO TEC 03 Clamp Amplifier (ALA Scientific Instruments, Westbury, N.Y.). Both electrodes were filled with 3 M KCl and had electrode resistances ranging from 0.2-1 MOhm. The current signals were filtered at 1000 Hz before transferred on a PC (Gateway, Calif.) using the PULSE software (HEKA, Germany).
To investigate whether the modulatory effects of these KChIPs are specific for Kv4 channels, KChIP1 was coexpressed with Kv1.4 and Kv2.1 in Xenopus oocytes. Xenopus oocytes were injected with 1-3 ng/oocyte of cRNA which was prepared using standard in vitro transcription techniques (Sambrook et al. 1989. Molecular Cloning: a laboratory manual, Cold Spring Harbor Press). Currents in Xenopus oocytes were measured with a two-electrode voltage clamp. […] As a final control for the KChIP effects and to verify that the KChIPs' effects on Kv4 currents are independent of expression system, the above kinetic analyses were repeated after expressing Kv4.3 and KChIP mRNAs in Xenopus oocytes. The effects KChIP1 on for Kv4.3 in the Xenopus oocyte system were strikingly similar to those on Kv4.2 in CHO cells (Table 1).

rKv4.3N = biological target: T2, rKv4.3N (Rattus norvegicus, UniProt Q62897); experiment: Yeast two-hybrid binding and specificity test, Kv4.3 N-terminal bait
T2 construct: expressed in transfected cells; host or cells: yeast HF7c (bait), mated with Y187 (fish)
T2 sequence (Q62897 1-180): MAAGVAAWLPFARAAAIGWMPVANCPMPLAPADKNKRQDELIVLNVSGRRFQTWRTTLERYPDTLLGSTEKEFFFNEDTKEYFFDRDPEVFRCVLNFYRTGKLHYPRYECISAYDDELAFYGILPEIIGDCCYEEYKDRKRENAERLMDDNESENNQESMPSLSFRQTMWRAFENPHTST
Procedure, shortened: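 Bait of rat Kv4.3 residues 1–180 in pGBT9, expressed in yeast HF7c, screened against a rat midbrain library. Positives scored by His and filter β-galactosidase reporters. Specificity tested by mating prey (in Y187) against a panel of related and unrelated baits and checking reporter activity.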

B1: KChIP1: Potassium channel interacting protein 1v, a Ca2+-binding protein that binds and modulates Kv4 channels (protein)
chain: MPARVLLAYPGTEMLTQGESEGLQTLGIVVVLCSSLKLLHYLGLIDLSDDKIEDDLEMTMVCHRPEGLEQLEAQTNFTKRELQVLYRGFKNECPSGVVNEETFKQIYAQFFPHGDASTYAHYLFNAFDTTQTGSVKFEDFVTALSILLRGTVHEKLRWTFNLYDINKDGYINKEEMMDIVKAIYDMMGKYTYPVLKEDTPRQHVDVFFQKMDKNKDGIVTLDEFLESCQEDDNIMRSLQLFQNVM
Q: B1 was tested. Which “effect on Kv2.1 currents” value (HKv2.1) did it give?
A: Its value is “did not appear to have any effect”.

Q: What about the “Activation V1/2 (mV)” value (HKv2.1; HKv2.1 + 1v) of the same molecule?
A: Its value is 12.4 mV.

Q: What about the “Steady-state Inactivation V1/2 (mV)” value (HKv2.1; HKv2.1 + 1v) of the same molecule?
A: The value was −23.9 mV.

Q: And the “Peak Current (μA/cell at 50 MV)” value (HKv2.1; HKv2.1 + 1v, at 50 mV)?
A: Its value is 2.9 ± 0.37 μA/cell.

Q: What about the “Inactivation time constant (at 50 mV)” value (HKv2.1; HKv2.1 + 1v, at 50 mV, listed as head says ms, cell prints s) of the same molecule?
A: The value was 1.7 s 0.078.

Q: What about the “binding to rKv4.3N in yeast two-hybrid assay” value (rKv4.3N) of the same molecule?
A: The value was “able to bind to the Kv4.3 polypeptide”.

Reference: patent US7556938B1, “Nucleic acids encoding potassium channel interactors” (Millennium Pharmaceuticals, Inc., priority 1998, dated 2009)
